Here are results for six molecules from patent publication US20230293738A1 (Y MABS THERAPEUTICS, published 2023).

What is called Kd is the concentration at which binding is half-saturated. Read a low Kd as a tighter complex.

Assay [1] has as its target T1, human 4Ig-B7H3 (B7H3-4Ig-His) (human, UniProt Q5ZPR3 29-466).
T1 construct: Recombinant His-tagged protein immobilised on a CM5 chip; also called 41g-B7H3; human 4Ig-B7-H3 (dominant isoform); not shown: His tag
T1 sequence: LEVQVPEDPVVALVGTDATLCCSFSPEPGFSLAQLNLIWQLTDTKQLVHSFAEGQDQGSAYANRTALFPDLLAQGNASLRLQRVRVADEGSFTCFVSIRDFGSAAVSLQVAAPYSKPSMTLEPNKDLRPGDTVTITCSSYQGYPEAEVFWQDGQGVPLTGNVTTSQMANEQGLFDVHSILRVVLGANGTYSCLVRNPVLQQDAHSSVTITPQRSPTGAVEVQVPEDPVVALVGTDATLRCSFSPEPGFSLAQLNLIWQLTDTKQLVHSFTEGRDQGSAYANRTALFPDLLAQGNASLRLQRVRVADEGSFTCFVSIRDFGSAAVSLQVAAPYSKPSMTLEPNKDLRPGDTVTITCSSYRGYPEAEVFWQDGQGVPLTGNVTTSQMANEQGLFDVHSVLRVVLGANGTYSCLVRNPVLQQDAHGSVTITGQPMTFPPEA
The assay is described as follows: SPR, Biacore T200, 4Ig-B7H3-His on CM5 chip, 1:1 fit. As for the experimental part: (§1) Both human B7H3 41g and 21g proteins were dissolved in PBS (Phosphate-Buffered Saline) to make 0.1 mg/ml stock solution and stored in −80° C. B7-H3 proteins were immobilized onto the CM5 sensor chip using Amine Coupling Kit. Both proteins were diluted to 10 ug/ml with 10 mM Sodium acetate, pH 5.0. […] A blank immobilized surface was used as a control
(§2) The data were analyzed by the 1:1 fitting model and default parameter setting for the rate constants using the Biacore T200 Evaluation Software, and the apparent association on rate constant (kon, ka), dissociation off rate constant (koff, kd) and equilibrium dissociation constant (KD=kd/ka) were calculated.

Assay [2] concerns the target T2, human 2Ig-B7H3 (B7H3-2Ig-His) (human, UniProt Q5ZPR3 29-466).
T2 construct: Recombinant His-tagged protein immobilised on a CM5 chip; also called 21g-B7H3; B7H3-21g-His; not shown: His tag
T2 sequence: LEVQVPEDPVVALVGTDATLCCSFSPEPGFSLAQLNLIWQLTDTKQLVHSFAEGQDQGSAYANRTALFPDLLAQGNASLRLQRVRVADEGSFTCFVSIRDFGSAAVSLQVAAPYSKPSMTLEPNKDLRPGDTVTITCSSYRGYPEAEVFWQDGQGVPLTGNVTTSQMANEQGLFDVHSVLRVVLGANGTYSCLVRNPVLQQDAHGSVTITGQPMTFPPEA
The assay is described as follows: SPR, Biacore T200, 2Ig-B7H3-His on CM5 chip, 1:1 fit. The protocol:
as §1, §2
On the technique in general: In SPR one partner is held on a chip, and binding of the other changes the refractive index at the surface.

The target of assay [3] is T2, human 2Ig-B7H3 (B7H3-2Ig-His). The assay is described as follows: SPR; CHX-A''-DTPA conjugate, CAR 1.4, labeled with cold 175Lu. The protocol: as §1
(§3) Binding Assays: [0143] 1. Antibodies were diluted in HBS-EP buffer (10 mM HEPES, 150 mM NaCl, 3 mM EDTA, 0.05% Surfactant P20, pH 7.4) at varying concentrations (25-50-100-200-400 nM) prior to analysis. […] 2. Samples (60 ul) were injected over the sensor surface at a flow rate of 30 ul/min over 2 min. [0145] 3. Following completion of the association phase, dissociation was monitored in HBS-EP buffer for 10 min at the same flow rate. […] 4. At the end of each cycle, the surface was regenerated using 10 mM NaOH at a flow rate of 50 ul/min over 2×15 sec.

The target is the same in assay [4]. The assay is described as follows: SPR. As for the experimental part:
as §1, §2

In assay [5] the target is T1, human 4Ig-B7H3 (B7H3-4Ig-His). The assay is described as follows: SPR. As for the experimental part:
as §1, §2

For assay [6], the target named is T2, human 2Ig-B7H3 (B7H3-2Ig-His). The assay is described as follows: SPR; CHX-A''-DTPA conjugate, CAR 3.6, labeled with cold 175Lu. As for the experimental part:
as §1, §3

Assay [7] shares this target. The assay is described as follows: SPR; CHX-A''-DTPA conjugate, CAR 3, labeled with cold 175Lu. As for the experimental part:
as §1, §3

Assay [8] has the same target. The assay is described as follows: SPR, Biacore T200, 2Ig-B7H3-His on CM5 chip, 1:1 fit. As for the experimental part: as §1, §3, §2
The source holds these as a separate data set.

The target is the same in assay [9]. The assay is described as follows: SPR, Biacore T200, 2Ig-B7H3-His on CM5 chip, 1:1 fit; DOTA conjugate, CAR 11.7, unlabeled.
In assay [10] the target is T1, human 4Ig-B7H3 (B7H3-4Ig-His). The assay is described as follows: SPR, Biacore T200, 4Ig-B7H3-His on CM5 chip, 1:1 fit. As for the experimental part:
as §1, §3
The source holds these as a separate data set.

Assay [11] has as its target T2, human 2Ig-B7H3 (B7H3-2Ig-His). The assay is described as follows: SPR; 127I-labeled 8H9. The protocol: as §1, §3
Assay [12] shares this target. The assay is described as follows: SPR, Biacore T200, 2Ig-B7H3-His on CM5 chip, 1:1 fit; 127I-labeled 8H9, lot P76501A. The protocol:
as §1, §3

The target is the same in assay [13]. The assay is described as follows: SPR. As for the experimental part: as §1, §3
This is another data set of the same source.

Assay [14] has as its target T1, human 4Ig-B7H3 (B7H3-4Ig-His). The assay is described as follows: SPR. As for the experimental part: as §1, §3
This is another data set of the same source.

The target of assay [15] is T2, human 2Ig-B7H3 (B7H3-2Ig-His). The assay is described as follows: SPR, Biacore T200, 2Ig-B7H3-His on CM5 chip, 1:1 fit; CHX-A''-DTPA conjugate, CAR 6.1, unlabeled.

B1: 175Lu-DTPA-8H9-antibody (CAR1.4) (antibody, mouse IgG1, kappa, V domains shown)
VH: QVQLQQSGAELVKPGASVKLSCKASGYTFTNYDINWVRQRPEQGLEWIGWIFPGDGSTQYNEKFKGKATLTTDTSSSTAYMQLSRLTSEDSAVYFCARQTTATWFAYWGQGTLVTVSA
VL: DIVMTQSPATLSVTPGDRVSLSCRASQSISDYLHWYQQKSHESPRLLIKYASQSISGIPSRFSGSGSGSDFTLSINSVEPEDVGVYYCQNGHSFPLTFGAGTKLELKR
modifications: p-SCN-Bn-CHX-A″-DTPA conjugated (CAR 1.4 per antibody), labelled with cold lutetium-175; sites not stated
Regarding B1, the Kd is 7.64 nM in assay [1], 0.217 nM in assay [2], below 0.316 nM in assay [3] and 7.64 nM in assay [5]. In addition, the “t ½” value turned out to be 1.26 h in [1], 28.1 h in [2], 28.1 h in [4] and 1.26 h in assay [5].

B2: 175Lu-DTPA-8H9-antibody (CAR3.6) (antibody, mouse IgG1, kappa, V domains shown)
VH: QVQLQQSGAELVKPGASVKLSCKASGYTFTNYDINWVRQRPEQGLEWIGWIFPGDGSTQYNEKFKGKATLTTDTSSSTAYMQLSRLTSEDSAVYFCARQTTATWFAYWGQGTLVTVSA
VL: DIVMTQSPATLSVTPGDRVSLSCRASQSISDYLHWYQQKSHESPRLLIKYASQSISGIPSRFSGSGSGSDFTLSINSVEPEDVGVYYCQNGHSFPLTFGAGTKLELKR
modifications: p-SCN-Bn-CHX-A″-DTPA conjugated (CAR 3.6 per antibody), labelled with cold lutetium-175; sites not stated
Take B2: the Kd in [1] amounted to 18.5 nM; in [2], 2.34 nM; in [6], 2.34 nM; in assay [5], 18.5 nM. In addition, the “t ½” value came to 0.722 h in assay [1], 5 h in assay [2], 5 h in assay [4] and 0.722 h in [5].

B3: 175Lu-DTPA-8H9-antibody (CAR3) (antibody, mouse IgG1, kappa, V domains shown)
VH: QVQLQQSGAELVKPGASVKLSCKASGYTFTNYDINWVRQRPEQGLEWIGWIFPGDGSTQYNEKFKGKATLTTDTSSSTAYMQLSRLTSEDSAVYFCARQTTATWFAYWGQGTLVTVSA
VL: DIVMTQSPATLSVTPGDRVSLSCRASQSISDYLHWYQQKSHESPRLLIKYASQSISGIPSRFSGSGSGSDFTLSINSVEPEDVGVYYCQNGHSFPLTFGAGTKLELKR
modifications: p-SCN-Bn-CHX-A″-DTPA conjugated (CAR 3 per antibody), labelled with cold lutetium-175; sites not stated
On to B3, for which the Kd was determined as 16.2 nM in assay [1], 1.8 nM in assay [2], 1.8 nM in assay [7] and 16.2 nM in assay [5]. The “t ½” value was 0.811 h in [1], 5.94 h in assay [2], 5.94 h in assay [4] and 0.811 h in [5].

B4: 8H9 antibody conjugated with p-SCN-Bn-DOTA, CAR 11.7 (antibody, mouse IgG1, kappa, V domains shown)
VH: QVQLQQSGAELVKPGASVKLSCKASGYTFTNYDINWVRQRPEQGLEWIGWIFPGDGSTQYNEKFKGKATLTTDTSSSTAYMQLSRLTSEDSAVYFCARQTTATWFAYWGQGTLVTVSA
VL: DIVMTQSPATLSVTPGDRVSLSCRASQSISDYLHWYQQKSHESPRLLIKYASQSISGIPSRFSGSGSGSDFTLSINSVEPEDVGVYYCQNGHSFPLTFGAGTKLELKR
modifications: p-SCN-Bn-DOTA conjugated, CAR 11.7 per antibody; sites not stated
notes: Chelator conjugate, not metal-labelled
On to B4, for which, in [8], the “T ½” value stood at 3.72 h. Moreover, the Kd in assay [9] was 2.99 nM. For the same molecule, in assay [10], binding was put at a Kd of 18.9 nM and the “t ½” value was 0.756 h.

B5: 127I-8H9-antibody P76501A (antibody, mouse IgG1, kappa, V domains shown)
VH: QVQLQQSGAELVKPGASVKLSCKASGYTFTNYDINWVRQRPEQGLEWIGWIFPGDGSTQYNEKFKGKATLTTDTSSSTAYMQLSRLTSEDSAVYFCARQTTATWFAYWGQGTLVTVSA
VL: DIVMTQSPATLSVTPGDRVSLSCRASQSISDYLHWYQQKSHESPRLLIKYASQSISGIPSRFSGSGSGSDFTLSINSVEPEDVGVYYCQNGHSFPLTFGAGTKLELKR
modifications: labelled with iodine-127; sites not stated
As to B5, the dissociation constant Kd in assay [11] was below 0.0787 nM; in assay [1], 0.666 nM; in [12], below 0.0787 nM; in assay [5] it was 0.666 nM. The “t ½” value in assay [1] was 4.39 h; in [2], 308 h; in [4], 308 h; in [5], 4.39 h.

B6: 8H9 antibody conjugated with p-SCN-Bn-CHX-A″-DTPA, CAR 6.1 (antibody, mouse IgG1, kappa, V domains shown)
VH: QVQLQQSGAELVKPGASVKLSCKASGYTFTNYDINWVRQRPEQGLEWIGWIFPGDGSTQYNEKFKGKATLTTDTSSSTAYMQLSRLTSEDSAVYFCARQTTATWFAYWGQGTLVTVSA
VL: DIVMTQSPATLSVTPGDRVSLSCRASQSISDYLHWYQQKSHESPRLLIKYASQSISGIPSRFSGSGSGSDFTLSINSVEPEDVGVYYCQNGHSFPLTFGAGTKLELKR
modifications: p-SCN-Bn-CHX-A″-DTPA conjugated, CAR 6.1 per antibody; sites not stated
notes: as for B4
B6: the “T ½” value in [8] is 0.394 h. For the same molecule, the t ½ in [13] was found to be 0.394 h; in assay [14], 0.215 h; in [10] it was 0.215 h. Besides, the Kd in assay [14] worked out at 53.8 nM; in [15], 24.3 nM; in [10], 53.8 nM.
